The target of the test is scFvD8 mutant (scFvD8-M), L96Tyr to Ser and H98Asp to Ser (mouse). The experiment in a line: ELISA; competitive: scFv at 0.5 nM pre-incubated with preS1 recombinant protein (1000 to 0.01 nM in PBST) at 37 °C for 1 h, then added to plates coated with 100 nM preS1, room temperature 30 min; detected with HRP-labelled anti-SUMO antibody; relative affinity.
scFvD8 mutant (scFvD8-M), L96Tyr to Ser and H98Asp to Ser (mouse), sequence (heavy, as listed by the source, chain 1 of 2): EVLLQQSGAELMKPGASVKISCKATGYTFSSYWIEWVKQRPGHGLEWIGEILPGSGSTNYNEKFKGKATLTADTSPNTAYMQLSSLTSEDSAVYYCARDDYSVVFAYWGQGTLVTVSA
scFvD8 mutant (scFvD8-M), L96Tyr to Ser and H98Asp to Ser (mouse), sequence (light, as listed by the source, chain 2 of 2): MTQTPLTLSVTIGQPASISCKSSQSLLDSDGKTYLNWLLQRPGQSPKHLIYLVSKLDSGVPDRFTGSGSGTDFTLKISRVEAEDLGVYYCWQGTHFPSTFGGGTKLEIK

For “HBV preS1 recombinant protein (domain or fragment)”, the relative affinity (concentration at 50% protein binding saturation) was determined as 5 nM.
